Reference: article PMC3245945 (Nucleic Acids Research, 2011)
Residue numbers refer to the chain shown, from its start. In names and notes the source's numbering stands.

B1: WHY2, Solanum tuberosum Whirly protein located in the mitochondria (natural protein, Solanum tuberosum (potato))
chain: ADAGKREGRVFAPYSVFKGKAALSAEPRLPTFNRLDSGGVKLNRRGVIMLTFWPSVGERKYDWEKRQLFALSATEVGSLISMGTRDSSEFFHDPSMLSSNAGQVRKSLSIKPNADGSGYFISLSVVNNNLKTNDRFTVPVTTAEFAVMRTAFSFALPHIMGWDRFTNRP
B2: WHY2 K67A (natural protein, Solanum tuberosum (potato))
chain: B1 chain with K20A

Experiments:
SEC = molecular target: the molecule itself; experiment: SEC
atomic force microscopy = molecular target: the molecule itself; experiment: atomic force microscopy
crystal structure = molecular target: the molecule itself; experiment: crystal structure

| Protein | stoichiometry N (SEC) | stoichiometry N (atomic force microscopy) | stoichiometry N (crystal structure) |
| --- | --- | --- | --- |
| B1 | 4 | 24 | – |
| B2 | 4 | – | 24 |
